This passage reports Kd results from article PMC10480042 (ACS applied materials & interfaces, 2023).

The target in this test is Aβ42. In words: SPR.

As usually defined, the Kd is the constant that tells how readily two partners part at equilibrium. A high value points to lower affinity.

B1: Spike1058 (1058HGVVFLHVTYV1068), fragment of the SARS-CoV-2 spike protein (peptide)
chain: HGVVFLHVTYV
Molecule B1 yielded a Kd of 82.6 nM.
